# B1: DDR-2: N141A (protein)
# parent chain: MKLLLYLFGVTFHSNTVVALELRECSHQLGMSNRKIRDEQISASSSFDLQSTGPQHARAHQESGSGAWCPKNQINSLSKEWLQISFSVDTVITSVETQGRFDDGRGMEYATAFKIQYWRPSLNAWASYKDDFELETIPANNDTEHAIRRHLDRAIIARRIRIVPVSNSTRTVCMRVEVFGCPFDDSLVFYNVDQGDLQSGISYHDFSYDGNLANSPHLTGGIGKLYDGEVGKNNVFVNHHKWVGWRRKRNGNVKLAFEFSELRNISGILIHTSNEFKKSAKAFSSATVLFSINGKDFSDTIVHFNNPEDTESEVPRWIRIPVNNRIAKVAKIRLNFGTDSDWLFISEVNFESNHTNIELLNDDVVIPDSVSYFSVTEHDDGTSMFAFIIFFFMFLIVAVIILTVLYRKREYRVKASSPSPNAKREILLTIDGNTIKHHVSPSTYQMARDNLQNALIEKMPMSPIISDYAEPDISVCSDVTANTPLLYGIDGPYDTQKRSNPLSSMVKYSDYGEVYCTTLPEIARDKLICVSRIGQGEFGEVDLCQLENRKVAVKKLHGISQADEFSFHREIRVLGSLKHPNVVEVVGVCTIQKPILCIMEYMENGDLKSYILKNPTIQTSQCISICTQLAAGLAYLESCNFVHRDIAARNCLVDGEGNVKIADFGMARSLYSQEYYKVEGKFVLPIRWMAWEALLLGKFSTASDVWGFGVTMWEIFSLCSEKPYSDMTDDDVVENLQSMSSTGSLKQVLSRPRMCPSKLYNEQILPCWNYESSRRPSFENVHLHLQSLVHTSPHIHF
# How the values were obtained:
# [1] = GFP fluorescence in D-type motor axons; conditions: glycan lost; control: wild-type DDR-2::GFP
# [2] = anti-GFP IP, anti-phosphotyrosine blot (autophosphorylation) from worms; conditions: glycan lost; control: wild-type DDR-2::GFP
protein,measurement,setting,value
B1,localisation_or_trafficking,[1],no change
same,enzymatic_activity,[2],no change

# — PMC6781908
